The chains are these.
B1: TPR 5TU (parent)
chain: GGAUCUUCUCGAUCUAACAAAAAAGACAAAUCUGCCACAAAGCUUGAGAGCAUCUUCGGAUGCAGAGGCGGCAGCCUUCGGUGGCGCGAUAGCGCCAACGUUCUCAACUAUGACACGCAAAACGCGUGCUCCGUUGAAUGGAGUUUAUCAUG

Variants at the floor of the assay were thinned out. Some results are limits rather than exact numbers.

The data set covers variants of B1. Kind of data set: polymerase ribozyme fitness, log enrichment relative to wild type (log ratio); higher = more active; in vitro selection for triplet polymerase activity. The procedure, abridged: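 Genotype fitness is the logarithm of its enrichment divided by wild-type enrichment, using inverse-variance-weighted averages of replicates. That logarithm is base 2. Enrichment was measured by Illumina sequencing of input and output libraries from one triplicate in vitro selection round, with frozen incubation at −7 °C, on PCR-built, transcribed mutant libraries of each subunit of a heterodimeric triplet polymerase ribozyme, retaining genotypes with ≥10 input reads and ≥1 read per output.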
In the case of G48C C57A C75G G83U A106G A107G A113U, the “polymerase ribozyme fitness (log ratio)” value is no more than -4.2.
The value for G48U G84U was -2.01; that for G48C C69A C149U was -2.77.
Consider G48C G94U C103U G140A, for which the “polymerase ribozyme fitness (log ratio)” value is no more than -4.2.
The value for A49G G70A G140U was no more than -4.2; that for A49C C79U C85U C132A U134A was no more than -4.2; that for A49U C57A G81A A98C U148G was no more than -4.2.
Take G48U A106G: the “polymerase ribozyme fitness (log ratio)” value is -1.48.
The value for G50A A52U U78C C116A C149G was no more than -4.2; that for A49G A97G was -1.11; that for G48C A98G U101C U144A A147U was -0.0628.
The value for G48U C85U G140U was no more than -4.2.
With A49C C54U G86C G88C A138U the figure was no more than -4.2; with G48U G50C C85G A98U C99U C149U, no more than -4.2.
For A49U A52C, the “polymerase ribozyme fitness (log ratio)” value was -0.692.
Take A49G C114U U144A: the “polymerase ribozyme fitness (log ratio)” value is -4.06.
With A49G G83U the figure was -1.22; with A49G C63U G81C U104G, -2.29.
The value for G48C C99U was -1.72; that for A49U C54G C72A U82G A110U was no more than -4.2; that for A49G C125G was -0.947.
The value for G48C C57G G67U C85A C93A C96U G140C was no more than -4.2; that for A49U G88A was no more than -4.2.
As for G50A A52C G84U A122U G141U, the “polymerase ribozyme fitness (log ratio)” value is -3.68.
With G48U C96A the figure was -0.685; with G48U C96G, -1.13.
Regarding A49U G50A G84A C95G U146C, the “polymerase ribozyme fitness (log ratio)” value was -1.2.
A49C G50C G81C A110U: the “polymerase ribozyme fitness (log ratio)” value was no more than -4.2.
As to A49C G50U G71C G94C G136A U144C, the “polymerase ribozyme fitness (log ratio)” value is no more than -4.2.
With A49C U56A G88U A122C C125U the figure was no more than -4.2; with G48C G141A, -3.64; with G48C G141U, -1.8.
G48C G143U: the “polymerase ribozyme fitness (log ratio)” value is -2.25.
The value for G50A A107U was -4.13; that for A49C U53A G88C G141C was no more than -4.2; that for A49U C85G was -2.96.
The value for G48U C93G was -3.47; that for A49C C76A was no more than -4.2.
The value for A49C A52G C85U U101G U127G U144G was no more than -4.2.
Take A49U: the “polymerase ribozyme fitness (log ratio)” value is -0.673.
With A49C the figure was -4.19; with A49G, -0.331; with A49C U55A G143C, no more than -4.2.
The value for A49U U53A G86A C87A A89G C114U was no more than -4.2.
With A49C A119U the figure was no more than -4.2; with A49U G58A U102G A122U, -0.217; with G48U, 0.247.
For G48C C93G, the “polymerase ribozyme fitness (log ratio)” value is -3.04.
Take A49U G80A: the “polymerase ribozyme fitness (log ratio)” value was -3.76.
With G50A A60C G86A the figure was -3.81; with A49C G50C C76U A91U A97U U111C G143C A150U, no more than -4.2.
The value for G48C C63U C69U G74A C93A U102G A107G was no more than -4.2.
With A49C U53A G86U A115G the figure was no more than -4.2.
As to A49G A52G G68U C69G G100C, the “polymerase ribozyme fitness (log ratio)” value was no more than -4.2.
For A49G G81C A91G A98U, the “polymerase ribozyme fitness (log ratio)” value was -2.95.
On to G48U A73G A122C U146C, for which the “polymerase ribozyme fitness (log ratio)” value is -0.965.
The value for G50A A52C A97G G100A C114G G133U was no more than -4.2.
With G48U C149G the figure was no more than -4.2.
Turning to A49G G59C G67A G70A U77C U82C A89G C95G, the “polymerase ribozyme fitness (log ratio)” value is no more than -4.2.
With A49G C51U C95G A137G U144A the figure was no more than -4.2; with G48C G58C C63A G74C G81A A89U A137C, no more than -4.2; with G50A A106G C118U, -1.6.
With A49C A52C C57A A91U C96G G112A G117U G143C A150G the figure was no more than -4.2; with A49C U61G C99G G124A, no more than -4.2; with G48C G50A U55A, -3.03.
With A49C G68C G94U A97U C114G G126A U127G the figure was no more than -4.2.
For the variant G50A A60U C96U U127A, the “polymerase ribozyme fitness (log ratio)” value is -3.79.
Turning to A49G G74C U101G G112C A122U U127A A138C, the “polymerase ribozyme fitness (log ratio)” value is no more than -4.2.
With G50A A97G A138C the figure was -4.01; with A49G G92C A115U, -3.24; with A49G U101C C114G U134C, -3.89.
With A49C G50C A91U C96G, the “polymerase ribozyme fitness (log ratio)” value is no more than -4.2.
As to A49C U77G G94C, the “polymerase ribozyme fitness (log ratio)” value was no more than -4.2.
The value for G50A A89U C99U was -2.94; that for A49C C93A C103G G117U C149G was no more than -4.2; that for G48U U55A C96G A115U was -4.16.
Consider A49G A52G U55A G67A A107U G133C A137G U139C, for which the “polymerase ribozyme fitness (log ratio)” value was no more than -4.2.
For G48C C85A A120G, the “polymerase ribozyme fitness (log ratio)” value was -2.75.
For G48C G70A G88U C96G, the “polymerase ribozyme fitness (log ratio)” value was no more than -4.2.
Consider A49G C54A C118A, for which the “polymerase ribozyme fitness (log ratio)” value was -3.25.
Consider A49G G58A, for which the “polymerase ribozyme fitness (log ratio)” value was -0.296.
Consider A49U A91G, for which the “polymerase ribozyme fitness (log ratio)” value was no more than -4.2.
The value for A49C U101G G141U was -1.78; that for A49U U82G was -0.129; that for G50A A52C was -3.13.
The value for A49G C51G was -2.66; that for A49C C79U U151G was no more than -4.2.
G48C U53A G74C C85U C99U A119G A120G: the “polymerase ribozyme fitness (log ratio)” value was no more than -4.2.
Turning to A49C C51U A52C G62A G70A G84A A106G A115G, the “polymerase ribozyme fitness (log ratio)” value was no more than -4.2.
With A49C C87U the figure was -4.01; with A49U A66G G80C G84U U102G, no more than -4.2.
The value for G48C C96U A110G was no more than -4.2.
With A49G G50C C95U A98G U145G the figure was -2.77.
As for G48C C54A A73U C99A A150C, the “polymerase ribozyme fitness (log ratio)” value was no more than -4.2.
On to A49C A91U C95A A107U, for which the “polymerase ribozyme fitness (log ratio)” value is no more than -4.2.
The value for G48C G86U C95A C96G G117C G136A was no more than -4.2; that for A49C U53A A106G was no more than -4.2.
The value for A49C A52U G84A C105U G124U was no more than -4.2; that for A49C A73G A91G C108U A119C C125A was no more than -4.2; that for A49C G94C was -4.16.
For the variant A49C C69G C85A A120C C125U, the “polymerase ribozyme fitness (log ratio)” value is no more than -4.2.
With A49U A60C the figure was -3.47; with G48C C54A C108G C114U C125U U134A C149G, no more than -4.2; with G48C C85U G94U C96U U144C, -3.25.
The value for G50A A91G C99U C103G was no more than -4.2.
In the case of A49C C99G, the “polymerase ribozyme fitness (log ratio)” value is no more than -4.2.
With G48U A49C C69G G86A C93U U139G A150G the figure was no more than -4.2; with A49U G83A U145A, -1.1; with A49C G84C, no more than -4.2.
The value for A49C C75G G83U G141A U146A was no more than -4.2.
On to A49U A73G G81C C85U, for which the “polymerase ribozyme fitness (log ratio)” value was -2.64.
With A49U G58C the figure was -0.846.
The value for G48C C85A A142U was no more than -4.2; that for G48C A49G A113G was no more than -4.2; that for A49C G65C G88U C96A was -4.03.
With A49G G84A G152A the figure was -2.8.
Consider A49C G141A, for which the “polymerase ribozyme fitness (log ratio)” value was -3.79.
The value for A49C G141C was -4.14; that for A49G G126U was -0.157; that for A49U U56A C99G A147G was no more than -4.2.
For A49U U55G C103A U111C A138G G152A, the “polymerase ribozyme fitness (log ratio)” value is no more than -4.2.
With A49U U53A A64G G84U U90C C96A A97G G124U G140A the figure was no more than -4.2; with G48U A142U, -2.92; with A49G G84U U145G, -3.09.
With A49C U53A C54A C87U U102C the figure was no more than -4.2.
The value for A49C G71C U101G A137U A150U was no more than -4.2; that for A49G G84A was -0.52; that for A49G G92U was 0.21.
On to G48U U53A C85U, for which the “polymerase ribozyme fitness (log ratio)” value was -1.94.
With A49C G81A G112A C114U G128A G133A the figure was no more than -4.2; with A49U U56G G81A G94A U146G, no more than -4.2; with A49U C96G, -0.972.
With A49G G50U C51U C96U A98C G126A U134G U146A the figure was -3.95; with A49C C96A, -3.04.
With G48U G92U A121C A150C the figure was no more than -4.2; with G48U G59A C93U, -1.39; with A49C G62U A107U G152A, no more than -4.2.
As to A49C C51U G133A G143U, the “polymerase ribozyme fitness (log ratio)” value is no more than -4.2.
With G48U A98G the figure was -0.0311.
On to A49G G50A U53A U77G C79U G92U U109G A122U U134C U135C C149A A150U, for which the “polymerase ribozyme fitness (log ratio)” value was no more than -4.2.
The value for G50A A91U C99U C103G C108U A137C G141C was no more than -4.2.
With A49U G86A C87G A106C G136U A150C the figure was no more than -4.2; with G48C G84C C85A A110U C125A, no more than -4.2; with G48C A110C G141U U148G, no more than -4.2.
The value for A49C G62A G94C A122U C132G A142C was no more than -4.2.
As for G50A A110G, the “polymerase ribozyme fitness (log ratio)” value is -3.88.
A49U G58C A66G G80U C85A C87A C108G G128U C149U: the “polymerase ribozyme fitness (log ratio)” value was no more than -4.2.
With G48C G94U C96U C118G A122U the figure was -3.42; with A49U G141A A147G, no more than -4.2.
With A49G A60G C85U, the “polymerase ribozyme fitness (log ratio)” value was -0.602.
With G48U C57G C93U G136A U146G the figure was -2.43.
With A49C G68A U102G A107G the figure was no more than -4.2.
As to A49G G50A U55A U146C, the “polymerase ribozyme fitness (log ratio)” value was -1.98.
Consider A49U C54U, for which the “polymerase ribozyme fitness (log ratio)” value is -1.34.
The value for G48U C85A U127C was -2.74.
The value for A49G U55A C79U G92U C95A G140A was no more than -4.2; that for A49C A52C C54A G74U C76G C125U was no more than -4.2; that for A49C A106G was -4.12.
With A49C A52U A138U the figure was no more than -4.2.
Turning to A49G A113U, the “polymerase ribozyme fitness (log ratio)” value is -2.42.
The value for A49C C54U U55A A91U C108U G152A was no more than -4.2; that for G48U C75G G92U was no more than -4.2.
With A49G C57U C75A U146G the figure was no more than -4.2; with A49G A91G, -4.05.
The value for A49C G59A A60G A106G was no more than -4.2.
Take A49U A107C: the “polymerase ribozyme fitness (log ratio)” value is no more than -4.2.
The value for A49C G68C C85G A115G A119G G141U A147C was no more than -4.2.

Values taken from the RNAGym collection of RNA variant scans (doi:10.1073/pnas.2313332121).
